Data as given in article PMC8231783.

Target: transient receptor potential (TRP) channels
Assay: SPR; plasmonic tilted fiber Bragg grating (fiber-optic SPR) probe; TRP immobilised on the 50 nm gold film through 11-mercaptoundecanoic acid and EDC/NHS; CaM (0.1 nM to 10 uM) injected in a microfluidic capillary; 50 mM Tris-HCl, 100 mM NaCl, 1 mM DTT, 1 mM CaCl2, pH 7.5; read-out is the intensity change of a cladding mode

intensity change of the selected cladding mode at 1 uM CaM, 30 min: 1.7 dB
Substance: calmodulin (from UniProt P0DP23 1-149) (natural protein)
